These results are taken from US20230212319A1, “NOVEL ANTIGEN BINDING DOMAINS AND SYNTHETIC ANTIGEN RECEPTORS INCORPORATING THE SAME” (University of Southern California, priority 2020, published 2023).

Experiment [1] relates to RAJI cells. As to the kind of experiment: JNG assay, co-culture with RAJI cells. It counts as cell-based. The following applies: co-culture with RAJI cells. A digest of the protocol: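 Jurkat-NFAT-GFP (JNG) cells stably expressing SAR constructs via lentiviral transduction and puromycin/blasticidin selection were cocultured with target cells at E:T ~1:2 for ~4–18 h. NFAT-driven GFP was measured by FACS versus parental JNG cells; scores +/- to 5+ denote ~5–50% GFP-positive cells.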

The test system of experiment [2] is LNCaP cells. The experiment in a line: JNG assay, co-culture with LNCaP cells. It counts as cell-based. The following applies: for GFP induction: LNCaP cells, only in the presence of SAR-adaptor PSMA-USC76-chVH-G4S-ULBP2-S3 (SEQ ID NO: 23114). On the procedure: Cellular supernatant is collected and assayed for the induction of cytokines (e.g., IL2).
JNG (Jurkat cells expressing EGFP under an NFAT promoter) were infected with lentiviral vectors encoding different single chain and multi-chain SARs by spinfection in the presence of 8 µg/ml of Polybrene® (Sigma, Catalog no. H9268). The Jurkat-NFAT-GFP cells are engineered in such a way that the IL-2 promoter, which carries NFAT binding sites, is cloned upstream of the GFP gene. These cells have been used to study signaling via TCR and CAR. The different SARs were stably expressed in Jurkat NFAT-GFP cells by lentiviral mediated gene transfer, followed by selection with puromycin or blasticidin. No drug selection was used in case the construct lacked an antibiotic resistance gene. The SAR-expressing Jurkat-NFAT-GFP cells were cocultured with the target cells at E:T ratio of approximately 1:2 for approximately 4 hours to 18 hours. When the interaction between SIRs and their target antigen results in activation of the NFAT pathway, GFP expression is induced. […] GFP expression was monitored by FACS analysis. The Jurkat-NFAT-GFP (parental) cells were used as control. The structure of different constructs can be determined based on their names. For example, the construct CD8SP-CD19-hu-mROO5-1-vL-[hTCRa-C SDVP]-F-F2A-Spe-IgHSP-Apa-CD20-vHH-2HCD25-G4S-CDl9-hu-mROO5-1-vH-Mlu-[hTCRb-KACIAH]-F-P2A-PAC has the following modules from 5′ to 3′ direction: a CD8 signal peptide (CD8SP), the CD19 targeting hu-mROO5-1 vL fragment (CD19-hu-mROO5-1), Xho1 cloning site, human TCRa constant chain containing CSDVP mutations (hTCRa-CSDVP), Furine cleavage site (F), F2A ribosomal skip sequence (F2A), SpeI site, human IgH signal peptide (IgHSP), Apa I restriction enzyme site, camelid CD20-2HCD25-VHH module targeting CD20, BamHI restriction enzyme site, Glycinex4-serine linker (G4S), BstI restriction enzyme site, CD19-hu-mROO5-1-vH fragment targeting CD19, Mlu I restriction enzyme site, human TCRb constant chain containing KACIAH mutations ([hTCRb-KACIAH]), Furine cleavage site (F), P2A ribosomal skip sequence and Puromycin resistance gene (PAC). The sequence of the other constructs in the table can be similarly determined from their names and by referring to the different Tables of this disclosure that provide the names and SEQ ID NO of the different modules. Alternatively, the composition and modular architecture of the different SAR constructs can be determined from their sequences by bioinformatics tools, including using nucleic acid and amino acids homology searches. A SAR is considered positive in the assay in case the SAR expressing Jurkat-NFAT-GFP cells show greater % GFP positive cells when cultured with the target cell line as compared to parental Jurkat-NFAT-GFP cells. The signs +/-, +, 2+ etc. after the name of the cell lines indicate the relative degree of positivity on the Jurkat-NFAT-GFP assay as measured by the % GFP positive cells after culture of the SAR expressing Jurkat-NFAT-GFP cells with that cell line above the % GFP cells observed in parental Jurkat NFAT-GFP cells serving as controls. In general, the number +/-, +, 2+, 3+, 4+, 5+ refer to approximately 5%, 10%, 20%, 30%, 40% and 50% GFP positive cells. The % of GFP induction in the above assay is dependent not only the relative strength of the SAR but also, among other factors, on the relative level of expression of the SAR in the JNG cells and the relative level of expression of the target antigen in the target cell line. To control for the difference in gene transduction efficiency of the different SAR constructs, the experiment was conducted with JNG cells transduced with SAR constructs co-expressing a drug resistance gene (e.g., puromycin or PAC) followed by drug selection to generate a stable population of SAR-expressing cells. […]

B1: CD8SP-CD22-FHVH-24-PSMA71v2-chVH-Myc-CD8TM-BBZ-T2A-PAC (protein)
chain: MALPVTALLLPLALLLHAARPQLQLQESGPGLVKPSETLSLTCTVSGDSISSGDYYWGWIRQPPGKGLEWIGHIYYSGVTYYNPSLKSRVTISVDTSRNQFSLKLSSVTAADTAVYYCTREDSSNWRSRGQGTLVTVSSLESGGGGSFEVQLVESGGGVVQPGRSLRLSCAASGFSFSGYGMHWVRQAPGKGLEWVAYISYDGSNKYYADSVKGRFTISRDNSKNTLYLQMNSLRAEDTAVYYCAKDPAWGLRLGESSSYDFDIWGQGTMVTVSSTREQKLISEEDLAKPTTTPAPRPPTPAPTIASQPLSLRPEACRPAAGGAVHTRGLDFACDIYIWAPLAGTCGVLLLSLVITLYCKRGRKKLLYIFKQPFMRPVQTTQEEDGCSCRFPEEEEGGCELRVKFSRSADAPAYQQGQNQLYNELNLGRREEYDVLDKRRGRDPEMGGKPRRKNPQEGLYNELQKDKMAEAYSEIGMKGERRRGKGHDGLYQGLSTATKDTYDALHMQALPPRSSGSGEGRGSLLTCGDVEENPGPHMTEYKPTVRLATRDDVPRAVRTLAAAFADYPATRHTVDPDRHIERVTELQELFLTRVGLDIGKVWVADDGAAVAVWTTPESVEAGAVFAEIGPRMAELSGSRLAAQQQMEGLLAPHRPKEPAWFLATVGVSPDHQGKGLGSAVVLPGVEAAERAGVPAFLETSAPRNLPFYERLGFTVTADVEVPEGPRTWCMTRKPGA
Consider B1, for which the “GFP induction / activity” value in experiment [1] is “able to effectively induce GFP”. For the same molecule, the “GFP induction (relative degree of positivity)” value in experiment [2] (PSMA-expressing LNCaP cells) was “+5.5”.

B2: SEQ ID NO: 22287: NKG2D-YA-G4Sx3-NKG2D-YA domain attached to the hu-mROO5-1 vH fragment of an Ab-TCR via a G4S linker (protein)
chain: MALPVTALLLPLALLLHAARPACEVQLLESGGGLIQPGGSLRLSCAASGFTFSSHAMTWVRQAPGKGLEWVSAISGSGDYTHYADSVKGRFTISRDNSKNTVYLQMNSLRAEDSAVYYCAKDEDGGSLLGHRGQGTLVTVSSGTGGGGSGGGGSGGGGSEFDIQMTQSPSSLSASVGDRVTITCKASDHINNWLAWYQQKPGQAPKLLIYGATTLETGVPSRFSGSGSGTDYTLTISSLQPEDFATYYCQQSWNTPWTFGQGTKLEIKRLEGQPKANPTVTLFPPSSEELQANKATLVCLISDFYPGAVTVAWKADGSPVKAGVETTKPSKQSNNKYAASSYLSLTPEQWKSHRSYSCQVTHEGSTVEKTVAPTECSGRADCGFTSESYQQGVLSATILYEILLGKATLYAVLVSALVLMAMVKRKDSRGRAKRSGSGATNFSLLKQAGDVEENPGPTSTMDWIWRILFLVGAATGAHSLFNQEVQIPLTESYCGPCPKNWICYKNNCYQFFDESKNWYESQASCMSQNASLLKVYSKEDQDLLKLVKSAHWMGLVHIPTNGSWQWEDGSILSPNLLTIIEMQKGDCALYASSFKGYIENCSTPNTYICMQRTVSGGGGSGGGGSGGGGDLFNQEVQIPLTESYCGPCPKNWICYKNNCYQFFDESKNWYESQASCMSQNASLLKVYSKEDQDLLKLVKSAHWMGLVHIPTNGSWQWEDGSILSPNLLTIIEMQKGDCALYASSFKGYIENCSTPNTYICMQRTVGSGGGGSGGGGSGGGGSFEQVQLQQPGAELVKPGASVKMSCKASGYAFSSYWINWMKQKPGQGLEWIGQIYPGDGDTNYNGKFKGRATLTADTSSSTAYMQLSSLTSEDSAVYFCARSITTVVGCAMDYWGQGTSVTVSSTRASTKGPSVFPLAPSSKSTSGGTAALGCLVKDYFPEPVTVSWNSGALTSGVHTFPAVLQSSGLYSLSSVVTVPSSSLGTQTYICNVNHKPSNTKVDKRVEPKSCIPEDTFFPSPESSCDVKLVEKSFETDTNLNFQNLSVIGFRILLLKVAGFNLLMTLRLWSSRAKRSGSGVKQTLNFDLLKLAGDVESNPGPSRGHMTEYKPTVRLATRDDVPRAVRTLAAAFADYPATRHTVDPDRHIERVTELQELFLTRVGLDIGKVWVADDGAAVAVWTTPESVEAGAVFAEIGPRMAELSGSRLAAQQQMEGLLAPHRPKEPAWFLATVGVSPDHQGKGLGSAVVLPGVEAAERAGVPAFLETSAPRNLPFYERLGFTVTADVEVPEGPRTWCMTRKPGA
In the case of B2, in experiment [1], the “GFP induction / activity” value is on record as “robust induction of GFP”. Besides, the GFP induction result in experiment [2] was “induction of GFP”.

B3: SEQ ID NO: 22286: engineered NKG2D-YA domain attached to the N-terminus of the IgCL fragment of a SAR with Ab-TCR backbone (protein)
chain: MALPVTALLLPLALLLHAARPACLFNQEVQIPLTESYCGPCPKNWICYKNNCYQFFDESKNWYESQASCMSQNASLLKVYSKEDQDLLKLVKSAHWMGLVHIPTNGSWQWEDGSILSPNLLTIIEMQKGDCALYASSFKGYIENCSTPNTYICMQRTVLEGQPKANPTVTLFPPSSEELQANKATLVCLISDFYPGAVTVAWKADGSPVKAGVETTKPSKQSNNKYAASSYLSLTPEQWKSHRSYSCQVTHEGSTVEKTVAPTECSPIKTDVITMDPKDNCSKDANDTLLLQLTNTSAYYMYLLLLLKSVVYFAIITCCLLRRTAFCCNGEKSRAKRSGSGATNFSLLKQAGDVEENPGPTSATMDWIWRILFLVGAATGAHSGPQVQLQESGGGLAQAGGSLRLSCAASGRTFSMGWFRQAPGKEREFVAAITYSGGSPYYASSVRGRFTISRDNAKNTVYLQMNSLKPEDTAVYYCAANPTYGSDWNAENWGQGTQVTVSSGSGGGGSGGGGSGGGGSFEQVQLQQPGAELVKPGASVKMSCKASGYAFSSYWINWMKQKPGQGLEWIGQIYPGDGDTNYNGKFKGRATLTADTSSSTAYMQLSSLTSEDSAVYFCARSITTVVGCAMDYWGQGTSVTVSSTRASTKGPSVFPLAPSSKSTSGGTAALGCLVKDYFPEPVTVSWNSGALTSGVHTFPAVLQSSGLYSLSSVVTVPSSSLGTQTYICNVNHKPSNTKVDKRVEPKSCEVKTDSTDHVKPKETENTKQPSKSCHKPKAIVHTEKVNMMSLTVLGLRMLFAKTVAVNFLLTAKLFFLRAKRSGSGVKQTLNFDLLKLAGDVESNPGPSRGHMTEYKPTVRLATRDDVPRAVRTLAAAFADYPATRHTVDPDRHIERVTELQELFLTRVGLDIGKVWVADDGAAVAVWTTPESVEAGAVFAEIGPRMAELSGSRLAAQQQMEGLLAPHRPKEPAWFLATVGVSPDHQGKGLGSAVVLPGVEAAERAGVPAFLETSAPRNLPFYERLGFTVTADVEVPEGPRTWCMTRKPGA
As to B3, the “GFP induction / activity” value in experiment [1] was “robust induction of GFP”. The GFP induction entry in experiment [2] is recorded as “induction of GFP”.
